Article doi:10.1101/2024.04.02.587325, “Structural characterization of the Pseudomonas Aeruginosa MexR–mexR repressor-operator complex: a small-angle X-ray and neutron scattering perspective”

Target: MexR (Pseudomonas aeruginosa, UniProt P52003)
Assay: ITC; one set of sites; N = 4.0 ± 0.1; dH 122.3 ± 5.2 kJ/mol; ITC: 20 mM NaPO4 pH 7.0, 150 mM NaCl, 5 mM beta-mercaptoethanol, 20 C; SEC of the complex: 20 mM HEPES, 150 mM NaCl, 2 mM TCEP
Conditions: protein: recombinant; tags: N-terminal His6-Trx removed by TEV; residual SM; chain copies: 4; blunt

Sequence of MexR (P52003 5-139, tags or fused parts left off): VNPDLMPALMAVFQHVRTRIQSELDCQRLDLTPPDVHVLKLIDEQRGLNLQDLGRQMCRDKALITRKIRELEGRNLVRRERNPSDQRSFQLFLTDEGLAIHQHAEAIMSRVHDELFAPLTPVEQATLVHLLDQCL

B1: 60 bp mexR-mexA operator DNA (PI+PII) (dsDNA)
DNA 1: AAATGTGGTTGATCCAGTCAACTATTTTGCTTATTTTAGTTGACCTTATCAACCTTGTTT
DNA 2: AAACAAGGTTGATAAGGTCAACTAAAATAAGCAAAATAGTTGACTGGATCAACCACATTT
With B1 the Kd was 206 ± 52 nM.
